From patent US20140289906A1, “Compositions Having Dicamba Decarboxylase Activity and Methods of Use” (priority 2013, published 2014)

Assay: 14C assay: 14CO2 capture from [14C]-carboxyl-labeled dicamba with IPTG-induced recombinant E. coli cells
Details: for Dicamba Decarboxylase Activity: IPTG-induced recombinant E. coli cells, 14CO2 from [14C]-carboxyl-labeled dicamba; for decarboxylation activity of dicamba: among the 108 sequences tested, recombinant E. coli cell assay; for Enzymatic Detection level: dicamba decarboxylation activity

Molecule | Dicamba Decarboxylase Activity | decarboxylation activity of dicamba | Enzymatic Detection level
89 (protein, listed as Erwinia billingiae) MATNRRDFLKNATAVMAGSTVFAGSSHFASAAAVEPAAVQPPRRIIALEEHFMLPEFVGYLHETQQNLRNGLVDKVVTPLSDFGKGRLEIMDKNGVDFAVLSLSGPGVQAEPDRVKAVRLARYANDKLATEMQKNPRRYGGFAHLAMQDPLAAANELERCVKQLHMQGGMINGETDGLYLDDRRYDVFWERVEALNVPIYIHPGNPPDYPHMFAGHPEMWGPVWSWAVETCSHALRLIFSGTFDRYPGARVILGHMGETLPIQLWRLDSRYQIANQTFAIKHPPSWYAKKNITITTSGVCNDAALRCALDSMGSENVMFSIDYPFESTEIAVNWLKTANITEQERNAVAWGNATSILRLGA | High | showed decarboxylation activity of dicamba | High
2 (protein, listed as Serratia sp.) MAKIICLEEHTLDKALVMASMPAALEQAPFLSDWGKTVTDGNLPDRSRPQIEKNDLINIKGADIGRGRLDDMDVAGITMQVLSVGGFPHLISAAEGVDLNRAANDRLADAVNAHPDRFAAFATLPWAQPDSAEKELERAVKELGFKGALLNGRPSTHFLDHPDYDGLLARFNALGVPLYLHPGLPVRSVQQAYYGGFSDEVTARLSMFGWGWHHEAGIHLLRLILSGAFDKYPNLQVISGHWGEMLPFWLQRLDDSLPQAATGLRRTIAQTFKEQVYVTPSGMLTLPHFQFIYALLGAERIIFSVDYPYQTLDGVKAFIQSLPVPEEAKEAIAFRNAERLLGLTS | High | showed decarboxylation activity of dicamba | High
55 (protein, listed as Serratia sp.) MAKIICLEEHTLDKALVMASMPAALEQAPFLSDWGKTVTDGNLPDRSRPQIEKNDLINIKGADIGRGRLDDMDVAGITMQVLSVGGFPHLISAAEGVDLNRAANDRLADAVNAHPDRFAAFATLPWAQPDSAEKELERAVKELGFKGALLNGRPSTHFLDHPDYDGLLARFNALGVPLYLHPGLPVRSVQQAYYGGFSDEVTARLSMFGWGWHHEAGIHLLRLILSGAFDKYPNLQVISGHWGEMLPFWLQRLDDSLPQAATGLRRTIAQTFKEQVYVTPSGMLTLPHFQFIYALLGAERIIFSVDYPYQTLDGVKAFIQSLPVPEEAKEAIAFRNAERLLGLTS | High | showed decarboxylation activity of dicamba | High
57 (protein, Collimonas fungivorans) MAKLICVEEHVLDPAVGAATQSLVRAEAPYLPDWGSRVLDGRHVADRSRPHVIAPSESARKALEMGEPRLADMDAASIDMQVLSYGGFPQLLPAAQAIDLNRAANDKLALAAQAHPARFAGFATLPWQAPEAAARELERAVKQLGLKGALINGRPGDTFLDDARYAPILAAFDELKVPLYVHPGLPLPAVQAPYYGGFERELSARLAMFAWGWHNEAGIQVVRMLLAGVFDRHPRLQLISGHWGEMVPFFLQRLEDSIPQEASGLQRPIVQTYREHVYISPSGMFTLPHFQFIHALMGAQRILYSIDYPYQSLDGARAFIERLPISDTDKALIAHRNAERLLHL | High | showed decarboxylation activity of dicamba | High
79 (protein, Pyrenophora teres) MATTTTPSTLIATLESHLTPTLAFTSPTTSPTQPALHLIPPTTLTKLRNLGPGRVKDMHMLGHSRQIISHIPVAAPPQICSRFNDAIHAATMTNTAKFSVLAVLPTDGMEAAKELARCVSKYRFVGGVIGLNRGLRINGEGWEELWGLAERLRIPIMFREMWPLAFEIVDYQHHLPYSALGPILTQLHTSHTSSPLPLVRLYLSSVFDHYPSLRLVLAHPGSLPSLVPRIESLINSIPATDKPKRSFLDVWQHNIYLTTADAQDMSSLRALLEQIPVDRVLYASNYPFEERGNELMNELRESEFLTNIEWERVAWVNAETLFNLKEAGTKEARQLTTIPSSRS | High | showed decarboxylation activity of dicamba | High
58 (protein, Mycobacterium colombiense) MARVIALEEHYATTEFLRGPGTWLASRPGIVEPAGDLGDGRIAAMDQAGVDLAVLSLAAPGVEQLDPDDAVRLARDCNDQLAAAVRRYPDRLAGFATVPTSAPDRAADELERAVRGLGFPGAVINGHSRGRYLDDPFFEPVLARAAELQAPIYLHPTIPPAGVIESSYAGFAEPVTFALATVGWGWHINTATHALRMILGGVFDRHPSLQMIIGHMGEATSFMLPRFDATLKPELTGLNHPVSSYLRENFHYTFANFNDHATYANLVAQVGIERVAFSADYPFGSMVDARAFLDGLPLSDDERAAISHRNAEKLLGL | High | showed decarboxylation activity of dicamba | High
88 (protein, listed as Starkeya novella) MARKIALEEHFTTPELAGKYVARPTQSDALFADIERRLADFDELRLEMMDRAEIDLMVLSVTTPGVQGVRDTGEAIRLARGANDFLAREVQKRPSRYAGFAHLAMQDAEAAATELERAVRELGFRGALINGQTNGHYLDEDQYAPFWERVQELDVPVYLHPGNMADSPAMFAHRPELGGPIWAWTAETAAHALRLVFGGTFTRFPGAKVILGHMGETLPFLLWRLDSRREFDLGEKLAPDALPSAIIKRNIAVTTSGVCDPAPLVAALQALSDDNVMFSVDYPYEDPQLASKFIETAPIGEETRAKVCHGNAERLLGL | High | showed decarboxylation activity of dicamba | High
87 (protein, listed as Novosphingobium sp.) MASDIATAADLQTGGRQGYLRIATEEAFATRDQIDVYLRMVRDGTADRGMTSLWGFYAQSPSARATQIIERLLDLGEQRLADMDAAGIDKAVLALTSPGVQPLLDMEEARRIAGNANDRLAERCAAHPDRFIGMTAVAPQDPQWSAREILRGATQLGFKGVQINSHTQGRYLDEPFFDPIFRALGDVGQPLYIHPGTPPDSMIGPLLDAGLDGAIYGFGVETGMHLLRLITAGIFDRYPDLQIMVGHMGEALPYWLYRLDYMHQAGIRSQRYERMRPLKRTIAGYFRSNVLVTCSGMAWEPAIQFARQVMGEDRVMYAMDYPYQYEADEVRALDVMDLSPESKRKFFQTNAERWFDL | High | showed decarboxylation activity of dicamba | High
4 (protein, listed as Lactobacillus buchneri) MAKVITLEEHFSSQKLGQKMAEVLPKRPIGNVSPKMQDYMQRSLPPEAELEDVTGSRIQWMDQHQISMQILSYGNQNPQNSDPKFAVELTKLANDELAKAVAKAPDRFRAFASLPVSHPTDAAAELKRGVEELGFKGAMLVRPTSQAHPFFDDPFYLPIFEAAANLNVPVYLHPSFPDSQIIDYYYSNGPWDDKVSGILGTAGYGWHTDVGIQTVRLLLSGVFEKYPNLKLISGHWGEFASFALERMDQVMYPETNLSEPISKIYRDHVYVTPSGILTEPQLKFVKDEVGIEHLLYSIDYPYIKPENSGSFIESSPLTDEEKELFAHGNAEKLLQL | High | showed decarboxylation activity of dicamba | High
92 (protein, listed as Chitinophaga pinensis) MARIVTLEEHVSFPEMTALLPEEILKNRKQSGAALQMQEKLADITGERLTSMKAAGISMQVLSVENTDVYLLPDSLAPAFAAKYNDLLADKISSHSDAFAAFAMLPMTVPEAAADELERAVKTHGFCGAMIKGLINGVFLDAPKFAPVFACAEKLGVPLYIHPGIPPKEVIDAYYSNVGDTKGPNEAIACYGWGWHSETAIHILRLLAAGIFDKYPQLNIIIGHMGEMLPMMWERSNRVFQPGNNGKNQRTLIETFRKQLYITTSGIFTQPPLQIAIDTIGIDNILFSIDYPFSSNQMGIDFLTKAALPAEQLAKMAHGNADRILKF | Yes | showed decarboxylation activity of dicamba | High
56 (protein, Enterobacter aerogenes) MAKIICLEEHYLDSELGRACMPVALEQAPFLGDWGKTVADGHNPDRSRPQIEKNALINAKGADLGSRRLRDMDEAGITLQILSVGGFPQLAPEDEAVTLNTAANDRLAEAVRNHPDRFAAFATLPWAQPKDAENELVRAVEKLGFKGALLNGRPSSCFLDHPDYDSLLSRFNKLNVPLYLHPGLPLKSVQQAYFTGFSAEVNARLSMFGWGWHHEAGIHLLRLMLSGAFDKYPNMQVISGHWGEMLPFWLQRLDDSLPLAATGLSRTLTRTFQEHVYVTPSGMLTLPHFKFIYELMGAERILFSVDYPYQTLDGVKTFIDSLPVNKAEKEAIAFRNAERLLGITA | High | showed decarboxylation activity of dicamba | High
81 (protein, listed as Verticillium dahliae) MAASTKPKVVDIHTHMYPPSYIDILTSRTAIPVVRTFPQAADPRLILLDAEQQALDAALQDPTAKPPGRPLTSHYASLDQKIHFMDTHSIDISVVSLANPWLDFIEPKEAAATARSVNDEFEAMCASQPGRLFFFAALPLTAPLPALLEAVRHVAELEHCRGVILGTSGLGSGLDDPELVPVLEAVAAAALTVFLHPHYGLPNDVWGPRASAEYGHVLPLALGFPMETTIAVARMYLAGVFDRVPALRMLLAHSGGTLPFLAGRIESCILHDGQLVAEGKVGAARRTIWDVLREQVYLDAVIYSEIGLKAAIAASGGADRLMFGTDHPFFPPLGTDEQAKKESRINAGGSRPMITGNAMINGHGGLCNHITQSDYQDVVL | High | showed decarboxylation activity of dicamba | High
5 (protein, listed as Staphylococcus aureus) MAQNNMEANQMKSITFEEHYVIEDIQKETMNAISADPKGVPMKVMLEGLEKKTGFTNADELSHHDERIQFMNNQDVQIQVLSYGNGSPSNLVGQKAIELCQKANDQLANYIAQYPNRFVGFATLPINEPEAAAREFERCINDLGFKGALIMGRAQDGFLDQDKYDIIFKTAENLGVPIYLHPAPVNSDIYQSYYKGNYPEVTAATFACFGYGWHIDVGIHAIHLVLSGIFDRYPKLNMIIGHWGEFIPFFLERMDEALFAEHLNHPVSYYFKNNFYITPSGMLTKPQFDLVKKEAGIDRILYAADYPYIEPEKLGVFLDELGLTDEEKEKISYTNGAKLLGLSSNN | High | showed decarboxylation activity of dicamba | High
